Binding signal data for one molecule are collected here from US20220348925, “COMPOSITIONS AND METHODS FOR THE TARGETING OF SOD1” (Scribe Therapeutics Inc., published 2022).

The series concerns the target T1, CasX 119 (in cells) (Planctomycetes).
T1 chain: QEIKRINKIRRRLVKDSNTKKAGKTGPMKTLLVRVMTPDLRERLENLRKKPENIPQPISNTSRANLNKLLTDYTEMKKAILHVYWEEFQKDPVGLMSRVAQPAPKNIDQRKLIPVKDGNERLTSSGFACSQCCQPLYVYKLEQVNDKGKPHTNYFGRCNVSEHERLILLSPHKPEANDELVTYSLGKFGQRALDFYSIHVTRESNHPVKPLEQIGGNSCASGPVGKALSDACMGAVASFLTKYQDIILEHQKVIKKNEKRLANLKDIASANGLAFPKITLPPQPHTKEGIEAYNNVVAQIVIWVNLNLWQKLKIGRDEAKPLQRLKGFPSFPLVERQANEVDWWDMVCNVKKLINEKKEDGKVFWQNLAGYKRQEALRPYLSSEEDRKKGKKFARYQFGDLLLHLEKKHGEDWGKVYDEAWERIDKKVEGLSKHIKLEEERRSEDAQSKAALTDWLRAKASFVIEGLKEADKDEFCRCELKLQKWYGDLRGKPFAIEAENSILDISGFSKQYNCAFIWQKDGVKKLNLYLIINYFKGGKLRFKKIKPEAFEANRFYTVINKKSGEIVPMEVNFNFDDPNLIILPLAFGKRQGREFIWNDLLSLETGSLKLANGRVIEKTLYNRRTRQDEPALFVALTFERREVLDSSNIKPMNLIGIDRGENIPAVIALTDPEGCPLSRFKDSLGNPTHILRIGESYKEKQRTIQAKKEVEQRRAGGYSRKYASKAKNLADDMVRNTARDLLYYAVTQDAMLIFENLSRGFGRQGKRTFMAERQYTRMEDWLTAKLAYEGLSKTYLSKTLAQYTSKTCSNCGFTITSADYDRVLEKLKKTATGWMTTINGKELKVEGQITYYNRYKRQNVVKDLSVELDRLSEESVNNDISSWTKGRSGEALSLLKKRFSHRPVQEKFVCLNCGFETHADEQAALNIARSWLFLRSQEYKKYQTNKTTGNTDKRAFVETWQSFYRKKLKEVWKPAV
The series can be described thus: cell_activity; TTC PAM; SOD1-GFP reporter, GFP disruption. The conditions noted are these: tags: NLS. An excerpt: A SOD1-GFP reporter line was constructed by knocking in GFP at the endogenous human SOD1 locus, shown schematically in FIG. 19. A reporter (e.g., GFP reporter) coupled to a gRNA targeting sequence, complementary to the gRNA spacer, is integrated into a reporter cell line. Cells are transformed or transfected with a CasX protein and/or sgRNA variant, with the spacer motif of the sgRNA complementary to and targeting the gRNA target sequence of the reporter. The ability of the CasX:sgRNA ribonucleoprotein complex to cleave the target nucleic acid sequence is assayed by FACS. Cells that lose reporter expression indicate occurrence of CasX:sgRNA ribonucleoprotein complex-mediated cleavage and indel formation. The reporting system is based on reduced GFP fluorescence upon successful modifying (editing) of the SOD1 locus, detected by flow cytometry as shown in FIG. 20.
CasX 2 (SEQ ID NO:2) and guide 2 (SEQ ID NO:5) (labeled here as StX) and CasX 119 molecule and rRNA guide 64 (119.64) (labeled here as EvoXI) with SOD1 targeting spacers (2, with an encoding sequence of […] (SEQ ID NO: 310), and spacer 4, with an encoding sequence of […] (SEQ ID NO: 366)), were lipofected into SOD1-GFP reporter cells, selected for successful lipofection using puromycin, and later assayed for GFP disruption via FACS.

B1: sgRNA 64 SOD1 spacer 2 ; SOD1 exon 2 site (spacer 2) (ssRNA ; dsDNA)
RNA: GUACUGGCGCCUUUAUCUCAUUACUUUGAGAGCCAUCACCAGCGACUAUGUCGUAUGGGUAAAGCGCUUACGGACUUCGGUCCGUAAGAAGCAUCAAAGAUGUUCAUGAGUUUGGAGAU
DNA 1: ATGTTCATGAGTTTGGAGAT
DNA 2: ATCTCCAAACTCATGAACAT
B1 returned a binding signal of 35 fold vs CasX2 guide 2.
